Assay: yeast display, Sf9 membrane polyspecificity reagent, FACS + sequencing; frameworks hold sequencing errors
In short: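 Synthetic nanobody libraries on Saccharomyces cerevisiae BJ5465 were galactose-induced for 36–48 hours, stained 1 hour at 4 °C with 10% biotinylated, detergent-solubilized Sf9 membrane reagent and enriched on streptavidin microbeads. FACS then separated cells into low and high (top ~1%) gates by anti-HA (expression) and streptavidin (reagent binding) fluorescence. Genes were colony-PCR amplified, MiSeq 2 × 250 sequenced and CDR-length filtered. A clone's polyreactivity label is that of its gate of origin.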

| Sequence | polyreactivity (PSR sort gate) |
| --- | --- |
| QVQLVESGGGLVQAGGSLRLSCAASGSIFGSYAMGWYRQAPGKERELVAAITSGGSTHYADSVKGRFTISRDNAKNTVYLQMNSLKPEDTAVYYCNAQALRLFWRYDYWGLGTQVTVSS | low polyreactivity |
| QVQLVESGGGLVQAGGSLRLSCAASGSIFGSYTMGWYRQAPGKERELVAAISLGGGSTYYADSVKGRFTISRDNAKNTVYLQMNSLKPEDTAVYYCAAVQIVSGTYDYYWGQGTQVTVSS | low polyreactivity |
| QVQLVESGGGLVQAGGSLRLSCAASGSIFGSYVMGWYRQAPGKERELVAAISKSGGRTYYADSVKGRFTISRDNAKNTVYLQMKSLKPEDTAVYYCAVLPRVKDGTGGDYWGHGTQVTVSS | high polyreactivity |
| QVQLVESGGGLVQAGGSLRLSCAASGSIFGTNAMGGYRQAPGKETELVADISGSGGTTYYADSVKGRFTISRDNAKNTVDLQMNSLKPEDTAVYYCAAKGRAGYGYTAYANDYGGQGTQVTVSS | low polyreactivity |
| QVQLVESGGGLVQAGGSLRLSCAASGSIFGTNAMGWYRPAPGKERELVAAINWSGGTTYYADSVKGRFTISRDNAKNTVYLQMNSLKPEDTAVYYCNADIEKSYNYWGQGTQVTVSS | low polyreactivity |
| QVQLVESGGGLVQAGGSLRLSCAASGSIFGTNAMGWYRQAPGKERELVAAISLSTGSTYYADSVKGRFTISRDNAKNNVYLQMNSLKPEYTAVYYCAAYYVTPIYYYWGQGSQVTVSS | low polyreactivity |
| QVQLVESGGGLVQAGGSLRLSCAASGSIFGTNAMGWYRQAPGKERELVAVISDGGSTYYADSVKGRFTISRDNAKNTVYLQMNSLKPEDTAVYYCNTPLESPFYSRFGTTESDHWGQGTQVTVSS | low polyreactivity |
| QVQLVESGGGLVQAGGSLRLSCAASGSIFGTNTMGWYRQAPGKEREFVAVITGSTTSTYYADSVKWRFTISRDNANNTVYLQMNSLIPEDTAVYYCADEPGSRSYGGDYWGQGTQVTVSS | high polyreactivity |
| QVQLVESGGGLVQAGGSLRLSCAASGSIFGTNTMGWYRQAPGKERELVAAIRLSDSSTYYADSVKGRFTISRDNAKNSFYLQMNSLKPVDTAVYYCAVDYRAYHYYRYDYWGQGTQVTVSS | low polyreactivity |
| QVQLVESGGGLVQAGGSLRLSCAASGSIFGTYAMGWYRQAPGKEREFVAAISWSDGSTYYADSVKGRFTISRDNAKNTVYLQMNSLNPEDTAVYYCAVRRVGSIYIDRYIYVVADYDYWGQGTQVTVSS | low polyreactivity |
| QVQLVESGGGLVQAGGSLRLSCAASGSIFGTYAMGWYRQAPGKERELVAAITGNGGRTYYADSVKGRFTISRDNAKNTVYLQMNSLKPEDTAVYYCAKATSRRGFYYWGQGTQVTVSS | high polyreactivity |
| QVQLVESGGGLVQAGGSLRLSCAASGSIFGTYAMGWYRQAPGNERELVAAITGNGGRTYYADSVKGRFTISRDNAKNTVYLQMNSLKPEDTAVYYCAKATSRRGFYYWGQGTQVTVSS | high polyreactivity |
| QVQLVESGGGLVQAGGSLRLSCAASGSIFGVNAMGLYRQAPGKERELVASISLSDDRTYYADSVKGRFTISRDNAKNTVYLQMNSLKPEDTAVYYCARRILWYWDVYPSLAEYDYWGQGTQVTVSS | low polyreactivity |
| QVQLVESGGGLVQAGGSLRLSCAASGSIFGVNAMGWYRQAPGKERELVAAISSGGSTNYADSVKGRFTISRDNAKNTVYLQMNSLKPEDTAVYYCAADTNTRSNYDYWGQGTQVTVSS | low polyreactivity |
| QVQLVESGGGLVQAGGSLRLSCAASGSIFGVNTMGWYRQAPGKERELVAAISSGGNTHYADSVKGRFTISRDNAKNTVYLQMNSLKPEDTAVYYCAAAYVGIYYVSRRRWERYYYWGQGTQVTVSS | high polyreactivity |
| QVQLVESGGGLVQAGGSLRLSCAASGSIFGVYAMGWYRQAPGKEREFVAAITKRGGSTYYADSVKGRFTISRDNAKNTVYLQMNSLKPEDTAVYYCAARYGRYISSRYGSWGQGTQVTVSS | high polyreactivity |
